Reference: the supplement of paper PMC10567573

B1: HSP90AB1 (parent)
chain: EADKNDKAVKDLVVLLFETALLSS

Variants of: B1
Assay: protein stability index of a GFP-peptide fusion (GPS, HEK-293T) (PSI 1-6); higher = more stable
Settings: c terminus: a fixed tail appended
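Also: lentivirally expressed fusions sorted by FACS into six bins by GFP to DsRed ratio, PSI derived from sequencing read proportions per bin multiplied by bin number.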

Row | Variant | protein stability index
1 | A20P | 2.27
2 | A20T | 1.99
3 | A20I | 2.19
4 | A20N | 2.16
5 | A20V | 1.88
6 | K7S | 1.92
7 | K7H | 2
8 | K7I | 2.77
9 | K7T | 1.84
10 | K7L | 2.47
11 | K7G | 2.17
12 | K7D | 2
13 | K7Q | 1.67
14 | T19I | 2.92
15 | T19S | 2.15
16 | T19R | 1.99
17 | T19F | 2.57
18 | T19M | 2.29
19 | T19L | 1.98
20 | T19N | 2.15
21 | T19W | 2.52
22 | T19C | 2.54
23 | E18V | 4.33
24 | E18D | 1.33

Row | Variant | protein stability index
25 | E18P | 2.73
26 | E18L | 2.61
27 | E18R | 2.21
28 | E18I | 3.81
29 | E18H | 2.07
30 | E18C | 1.82
31 | D11T | 3.74
32 | D11P | 1.51
33 | D11M | 1.65
34 | D11V | 3.05
35 | D11G | 2.68
36 | D11E | 1.98
37 | D11R | 3.27
38 | D11S | 1.99
39 | L16D | 4.88
40 | L16P | 4.67
41 | L16V | 2.16
42 | L16S | 3.94
43 | L16Y | 2.27
44 | L16N | 4.05
45 | L16A | 3.56
46 | L21Y | 1.48
47 | L21T | 2.79
48 | L21H | 2.27

Row | Variant | protein stability index
49 | L21S | 2.28
50 | L21I | 2.17
51 | L21K | 2.35
52 | K10S | 1.82
53 | K10A | 1.82
54 | K10I | 1.96
55 | K10R | 1.8
56 | K10T | 2.26
57 | K10W | 1.83
58 | K10N | 2.01
59 | K10D | 2.42
60 | K10H | 2.38
61 | K10P | 1.49
62 | K10E | 2.18
63 | K10Y | 2.7
64 | F17K | 3.76
65 | F17W | 2.26
66 | F17Q | 3.82
67 | F17E | 4.22
68 | F17T | 3.67
69 | F17S | 3.89
70 | F17P | 4.3
71 | F17C | 2.59
72 | V13P | 3.78

Row | Variant | protein stability index
73 | V13Q | 4.08
74 | V13T | 3.27
75 | V13K | 3.37
76 | N5I | 1.9
77 | N5A | 2.57
78 | N5M | 2.27
79 | N5R | 1.63
80 | S23F | 1.68
81 | S23K | 1.91
82 | S23Q | 1.64
83 | S23W | 2.27
84 | S23V | 2.41
85 | S23D | 2.26
86 | S23C | 2.22
87 | L15C | 2.15
88 | L15P | 4.06
89 | L15N | 3.62
90 | L15K | 2.48
91 | L15A | 2.52
92 | E1Q | 1.87
93 | E1L | 2.02
94 | E1K | 1.61
95 | E1M | 2.69
96 | E1F | 1.36

Row | Variant | protein stability index
97 | E1A | 1.45
98 | A8N | 2.2
99 | A8H | 2.62
100 | A8W | 2.07
101 | A8M | 2.62
102 | A8F | 2.18
103 | A8E | 2.12
104 | A8G | 1.97
105 | A8T | 1.87
106 | A8K | 1.94
107 | A8I | 1.55
108 | A8C | 2.56
109 | A2K | 1.68
110 | A2F | 2.04
111 | A2W | 1.92
112 | A2P | 1.79
113 | A2N | 2.11
114 | A2V | 2.1
115 | V9A | 1.97
116 | V9K | 2.15
117 | V9P | 2.81
118 | V9D | 2.44
119 | L22T | 2.29
120 | L22H | 2.18

Row | Variant | protein stability index
121 | L22N | 2.68
122 | L22R | 2.09
123 | L22S | 2.7
124 | K4N | 2.05
125 | K4W | 2.12
126 | K4L | 1.75
127 | K4D | 2.13
128 | K4F | 2.21
129 | K4M | 2.13
130 | L12I | 2.46
131 | L12N | 3.89
132 | L12Y | 2.16
133 | L12E | 3.99
134 | L12K | 3.6
135 | L12H | 3.27
136 | S24V | 2.29
137 | S24L | 2.06
138 | S24W | 1.75
139 | S24M | 2.16
140 | S24I | 1.51
141 | S24Q | 1.67
142 | D6A | 2.51
143 | D6V | 1.9
144 | D6W | 1.69

Row | Variant | protein stability index
145 | D6K | 1.28
146 | D6F | 3.2
147 | D6Y | 1.69
148 | D3P | 2.47
149 | D3I | 1.9
150 | D3S | 2.65
151 | D3H | 1.98
152 | D3N | 2.13
153 | D3T | 1.65
154 | D3K | 1.58
155 | D3V | 2.02
156 | D3F | 3.79
157 | D3Y | 2.46
158 | D3E | 1.65
159 | V14Y | 1.88
160 | V14I | 2.04
161 | V14G | 2.19
162 | V14Q | 2.33
163 | V14A | 1.77
164 | V14F | 1.98
165 | V14M | 1.61
166 | V14P | 3.93
167 | V14R | 2.29
